Experimental data published in publication PMC10926671.

Molecular target: H3K27me3 peptide
Assay: ITC

Substance: MBP-BP1 (maltose-binding protein-tagged bromo-adjacent homology-plant homeodomain domain containing protein 1) (natural protein)
- Kd: 16.2 µM
